Target: … HLA-A*01 complex (soluble, biotinylated)
Assay: BIAcore SPR; pHLA immobilised via biotin, soluble TCR injected

- Kd: 6.55 µM
- T½: 6.1 s
- koff: 0.114 s⁻¹
B1: soluble disulfide-linked MAGE-A3 TCR: alpha chain with variable domain SEQ ID No: 8, reference TCR beta chain (TCR, V domains shown)
V domain 1: KQEVTQIPAALSVPEGENLVLNCSFTDSAIYNLQWFRQDPGKGLTSLLLVRPYQREQTSGRLNASLDKSSGRSTLYIAASQPGDSATYLCAVRPGGAGSYQLTFGKGTKLSVIP
V domain 2: KAGVTQTPRYLIKTRGQQVTLSCSPISGHRSVSWYQQTPGQGLQFLFEYFSETQRNKGNFPGRFSGRQFSNSRSEMNVSTLELGDSALYLCASSPNMADEQYFGPGTRLTVTE
